The Kd is the concentration at which binding is half-saturated. High values mean lower affinity, low ones higher affinity.

Holding throughout (assay): fluorescence anisotropy
The target of data set [1] is T1, jRdRp (NS5 RdRp module, wt) (Japanese encephalitis virus strain …, UniProt O90417 2799-3432).
For data set [2], the target named is T1, jRdRp (NS5 RdRp module, wt). This is another data set of the same source.
The target is the same in data set [3]. The source holds these as a separate data set.

Read-outs that look alike come from different tables or passages of the source.

On to AUAAACUUCU (ssRNA) [10mer ssRNA (FR10)], for which the results for the Kd in data set [1], in data set [2] and in data set [3] were 40.4 ± 2.1 nM, 39.3 ± 2.3 nM and 33.9 ± 0.6 nM, respectively.

Values taken from PMC3936712.
